Measurements taken from US20190177417A1 (BIOATLA, published 2019).

T1: Axl protein (human, UniProt P30530 26-451)
T1 construct: extracellular domain; also called human Axl; hAxl
T1 sequence (looked up): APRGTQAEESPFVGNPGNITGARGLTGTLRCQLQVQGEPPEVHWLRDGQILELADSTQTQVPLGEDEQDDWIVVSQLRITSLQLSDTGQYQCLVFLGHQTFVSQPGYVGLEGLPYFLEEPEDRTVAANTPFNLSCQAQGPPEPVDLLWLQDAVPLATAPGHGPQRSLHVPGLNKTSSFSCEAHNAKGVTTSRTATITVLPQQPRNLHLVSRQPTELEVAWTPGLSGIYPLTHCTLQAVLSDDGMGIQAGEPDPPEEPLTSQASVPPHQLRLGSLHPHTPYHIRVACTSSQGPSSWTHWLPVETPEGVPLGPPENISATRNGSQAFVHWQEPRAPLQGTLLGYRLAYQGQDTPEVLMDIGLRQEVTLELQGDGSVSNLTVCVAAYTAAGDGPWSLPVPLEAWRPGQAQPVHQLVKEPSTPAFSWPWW


Legend:
Axl protein [1] = biological target: T1, Axl protein; assay: ELISA, 1:3 dilution, pH 6.0 over pH 7.4
Axl protein [2] = biological target: T1, Axl protein; assay: ELISA, 1:9 dilution, pH 6.0 over pH 7.4

Row | Binder | Affinity ELISA CPE mutant ratio (1:3, pH 6.0/7.4) (Axl protein [1]) | Affinity ELISA CPE mutant ratio (1:9, pH 6.0/7.4) (Axl protein [2])
1 | HC-E102H (antibody, V domains shown) VH: EVQLVQSGAEVKKPGATVKISCKVSGYSFTGHTMNWIRQPPGKGLEWIGLIKPSNGGTSYNQKFKGRVTISADKSISTAYLQWSSLKASDTAMYYCAHGHYHSYFAMDYWGQGTLVTVSS VL: DIQMTQSPSSLSASVGDRVTITCKASQDVSSAVAWYQQKPGQAPRLLIYWASTRHTGVPSRFSGSGSGTEFTLTISSLQPDDFATYYCQEHFSTPLTFGQGTKVEIK | 2.08 ratio | 2.31 ratio
2 | HC-M107E (antibody, V domains shown) VH: EVQLVQSGAEVKKPGATVKISCKVSGYSFTGHTMNWIRQPPGKGLEWIGLIKPSNGGTSYNQKFKGRVTISADKSISTAYLQWSSLKASDTAMYYCAHGHYESYFAEDYWGQGTLVTVSS VL: DIQMTQSPSSLSASVGDRVTITCKASQDVSSAVAWYQQKPGQAPRLLIYWASTRHTGVPSRFSGSGSGTEFTLTISSLQPDDFATYYCQEHFSTPLTFGQGTKVEIK | 2.16 ratio | 1.36 ratio
3 | HC-A106L (antibody, V domains shown) VH: EVQLVQSGAEVKKPGATVKISCKVSGYSFTGHTMNWIRQPPGKGLEWIGLIKPSNGGTSYNQKFKGRVTISADKSISTAYLQWSSLKASDTAMYYCAHGHYESYFLMDYWGQGTLVTVSS VL: DIQMTQSPSSLSASVGDRVTITCKASQDVSSAVAWYQQKPGQAPRLLIYWASTRHTGVPSRFSGSGSGTEFTLTISSLQPDDFATYYCQEHFSTPLTFGQGTKVEIK | 21.5 ratio | 1.61 ratio
4 | HC-A106D (antibody, V domains shown) VH: EVQLVQSGAEVKKPGATVKISCKVSGYSFTGHTMNWIRQPPGKGLEWIGLIKPSNGGTSYNQKFKGRVTISADKSISTAYLQWSSLKASDTAMYYCAHGHYESYFDMDYWGQGTLVTVSS VL: DIQMTQSPSSLSASVGDRVTITCKASQDVSSAVAWYQQKPGQAPRLLIYWASTRHTGVPSRFSGSGSGTEFTLTISSLQPDDFATYYCQEHFSTPLTFGQGTKVEIK | 3.39 ratio | 2.51 ratio
5 | HC-W110D (antibody, V domains shown) VH: EVQLVQSGAEVKKPGATVKISCKVSGYSFTGHTMNWIRQPPGKGLEWIGLIKPSNGGTSYNQKFKGRVTISADKSISTAYLQWSSLKASDTAMYYCAHGHYESYFAMDYDGQGTLVTVSS VL: DIQMTQSPSSLSASVGDRVTITCKASQDVSSAVAWYQQKPGQAPRLLIYWASTRHTGVPSRFSGSGSGTEFTLTISSLQPDDFATYYCQEHFSTPLTFGQGTKVEIK | 3.72 ratio | 1.11 ratio
6 | HC-A106Y (antibody, V domains shown) VH: EVQLVQSGAEVKKPGATVKISCKVSGYSFTGHTMNWIRQPPGKGLEWIGLIKPSNGGTSYNQKFKGRVTISADKSISTAYLQWSSLKASDTAMYYCAHGHYESYFYMDYWGQGTLVTVSS VL: DIQMTQSPSSLSASVGDRVTITCKASQDVSSAVAWYQQKPGQAPRLLIYWASTRHTGVPSRFSGSGSGTEFTLTISSLQPDDFATYYCQEHFSTPLTFGQGTKVEIK | 3.29 ratio | 3.06 ratio
7 | HC-A106G (antibody, V domains shown) VH: EVQLVQSGAEVKKPGATVKISCKVSGYSFTGHTMNWIRQPPGKGLEWIGLIKPSNGGTSYNQKFKGRVTISADKSISTAYLQWSSLKASDTAMYYCAHGHYESYFGMDYWGQGTLVTVSS VL: DIQMTQSPSSLSASVGDRVTITCKASQDVSSAVAWYQQKPGQAPRLLIYWASTRHTGVPSRFSGSGSGTEFTLTISSLQPDDFATYYCQEHFSTPLTFGQGTKVEIK | 1.52 ratio | 2.2 ratio
8 | HC-W110R (antibody, V domains shown) VH: EVQLVQSGAEVKKPGATVKISCKVSGYSFTGHTMNWIRQPPGKGLEWIGLIKPSNGGTSYNQKFKGRVTISADKSISTAYLQWSSLKASDTAMYYCAHGHYESYFAMDYRGQGTLVTVSS VL: DIQMTQSPSSLSASVGDRVTITCKASQDVSSAVAWYQQKPGQAPRLLIYWASTRHTGVPSRFSGSGSGTEFTLTISSLQPDDFATYYCQEHFSTPLTFGQGTKVEIK | 5.99 ratio | 1.06 ratio
9 | HC-W110N (antibody, V domains shown) VH: EVQLVQSGAEVKKPGATVKISCKVSGYSFTGHTMNWIRQPPGKGLEWIGLIKPSNGGTSYNQKFKGRVTISADKSISTAYLQWSSLKASDTAMYYCAHGHYESYFAMDYNGQGTLVTVSS VL: DIQMTQSPSSLSASVGDRVTITCKASQDVSSAVAWYQQKPGQAPRLLIYWASTRHTGVPSRFSGSGSGTEFTLTISSLQPDDFATYYCQEHFSTPLTFGQGTKVEIK | 4.3 ratio | 0.8 ratio
10 | HC-M107F (antibody, V domains shown) VH: EVQLVQSGAEVKKPGATVKISCKVSGYSFTGHTMNWIRQPPGKGLEWIGLIKPSNGGTSYNQKFKGRVTISADKSISTAYLQWSSLKASDTAMYYCAHGHYESYFAFDYWGQGTLVTVSS VL: DIQMTQSPSSLSASVGDRVTITCKASQDVSSAVAWYQQKPGQAPRLLIYWASTRHTGVPSRFSGSGSGTEFTLTISSLQPDDFATYYCQEHFSTPLTFGQGTKVEIK | 20.6 ratio | 1.09 ratio
11 | HC-W110T (antibody, V domains shown) VH: EVQLVQSGAEVKKPGATVKISCKVSGYSFTGHTMNWIRQPPGKGLEWIGLIKPSNGGTSYNQKFKGRVTISADKSISTAYLQWSSLKASDTAMYYCAHGHYESYFAMDYTGQGTLVTVSS VL: DIQMTQSPSSLSASVGDRVTITCKASQDVSSAVAWYQQKPGQAPRLLIYWASTRHTGVPSRFSGSGSGTEFTLTISSLQPDDFATYYCQEHFSTPLTFGQGTKVEIK | 7.47 ratio | 1.37 ratio
12 | HC-W110L (antibody, V domains shown) VH: EVQLVQSGAEVKKPGATVKISCKVSGYSFTGHTMNWIRQPPGKGLEWIGLIKPSNGGTSYNQKFKGRVTISADKSISTAYLQWSSLKASDTAMYYCAHGHYESYFAMDYLGQGTLVTVSS VL: DIQMTQSPSSLSASVGDRVTITCKASQDVSSAVAWYQQKPGQAPRLLIYWASTRHTGVPSRFSGSGSGTEFTLTISSLQPDDFATYYCQEHFSTPLTFGQGTKVEIK | 8.22 ratio | 0.924 ratio
13 | HC-E102M (antibody, V domains shown) VH: EVQLVQSGAEVKKPGATVKISCKVSGYSFTGHTMNWIRQPPGKGLEWIGLIKPSNGGTSYNQKFKGRVTISADKSISTAYLQWSSLKASDTAMYYCAHGHYMSYFAMDYWGQGTLVTVSS VL: DIQMTQSPSSLSASVGDRVTITCKASQDVSSAVAWYQQKPGQAPRLLIYWASTRHTGVPSRFSGSGSGTEFTLTISSLQPDDFATYYCQEHFSTPLTFGQGTKVEIK | 2.08 ratio | 2.36 ratio
